# How the values were obtained:
# [1] = molecular target: T1, LukD, F-component of LukED, USA300 TCH1516 strain (Staphylococcus aureus USA300 TCH1516, UniProt Q2FXB1 27-327); test: MSD solution equilibrium, Fab with biotinylated antigen (or ForteBio)
# T1 sequence: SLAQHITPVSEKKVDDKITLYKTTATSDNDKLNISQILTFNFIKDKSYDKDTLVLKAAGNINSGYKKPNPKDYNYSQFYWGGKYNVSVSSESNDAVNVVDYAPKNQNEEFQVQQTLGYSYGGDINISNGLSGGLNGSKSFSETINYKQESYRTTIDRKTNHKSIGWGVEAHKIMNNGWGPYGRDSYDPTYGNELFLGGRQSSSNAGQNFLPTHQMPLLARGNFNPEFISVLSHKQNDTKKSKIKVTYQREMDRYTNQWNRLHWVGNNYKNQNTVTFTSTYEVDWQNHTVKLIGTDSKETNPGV
# [2] = molecular target: T2, HlgB, F-component of gamma-hemolysin, USA300 TCH1516 strain (Staphylococcus aureus USA300 TCH1516, UniProt P0A075 26-325); test: as above
# T2 sequence: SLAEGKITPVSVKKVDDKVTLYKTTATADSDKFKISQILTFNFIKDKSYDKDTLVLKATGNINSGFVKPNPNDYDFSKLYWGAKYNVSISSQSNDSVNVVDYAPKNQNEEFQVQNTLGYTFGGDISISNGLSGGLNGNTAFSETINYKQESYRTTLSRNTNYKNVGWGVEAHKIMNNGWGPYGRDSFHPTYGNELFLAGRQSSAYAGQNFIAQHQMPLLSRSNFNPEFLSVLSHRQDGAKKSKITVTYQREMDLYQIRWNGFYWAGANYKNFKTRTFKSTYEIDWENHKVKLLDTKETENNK
# [3] = molecular target: T3, LukF, F-component of Panton Valentine leukocidin (LukSF), USA300 TCH1516 strain (Staphylococcus aureus USA300 TCH1516); test: as above
# T3 chain: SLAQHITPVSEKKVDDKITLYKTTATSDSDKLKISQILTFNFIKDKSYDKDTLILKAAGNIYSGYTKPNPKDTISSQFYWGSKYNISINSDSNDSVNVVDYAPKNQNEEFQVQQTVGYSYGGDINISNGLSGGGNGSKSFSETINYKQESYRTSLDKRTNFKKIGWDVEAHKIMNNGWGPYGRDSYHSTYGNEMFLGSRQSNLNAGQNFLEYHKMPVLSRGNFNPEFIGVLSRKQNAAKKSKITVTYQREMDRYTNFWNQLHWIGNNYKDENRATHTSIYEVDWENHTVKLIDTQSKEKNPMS
# [4] = molecular target: T2, HlgB, F-component of gamma-hemolysin, …; test: MSD solution equilibrium, Fab with biotinylated antigen
# [5] = molecular target: T1, LukD, F-component of LukED, USA300 …; test: as above
# [6] = molecular target: T3, LukF, F-component of Panton Valentine …; test: as above
Binder,Kd [5] [nM],Kd [6] [nM],also measured
"AB-28 Fab fragment (Fab, V domains shown) VH: QVQLQESGPGLVKPSETLSLTCAVSGYSISSGMGWGWIRQPPGKGLEWIGSIDQRGSTYYNPSLKSRVTISVDTSKNQFSLKLSSVTAADTAVYYCARDAGHGVDMDVWGKGTTVTVSS VL: DIQMTQSPSSVSASVGDRVTITCRASQGISRWLAWYQQKPGKAPKLLIYAASSLQSGVPSRFSGSGSGTDFTLTISSLQPEDFATYYCQQGYVFPLTFGGGTKVEIK",,,Kd [1]: > 1 nM; Kd [2]: < 0.01 nM; Kd [3]: > 0.1 nM
"AB-28-3 Fab (Fab, V domains shown) VH: QVQLQESGPGLVKPSETLSLTCAVSGYSISSGMGWGWIRQPPGKGLEWIGSVDQRGSTYYNPSLKSRVTISVDTSKNQFSLKLSSVTAADTAVYYCARDAGHGADMDVWGKGTTVTVSS VL: DIQMTQSPSSVSASVGDRVTITCRASQGISRWLAWYQQKPGKAPKLLIYAASSLQSGVPSRFSGSGSGTDFTLTISSLQPEDFATYYCQQGYVFPLTFGGGTKVEIK",,,Kd [4]: < 0.02 nM
"AB-28-6 Fab (Fab, V domains shown) VH: QVQLQESGPGLVRPSETLSLTCAVSGYSISSGMGWGWIRQPPGKGLEWIGSIDQRGSTYYNPSLKSRVTISVDTSKNQFSLKLSSVTAADTAVYYCARDAGHAVDMDVWGKGTTVTVSS VL: DIQMTQSPSSVSASVGDRVTITCRASQGISRWLAWYQQKPGKAPKLLIYAASSLQSGVPSRFSGSGSGTDFTLTISSLQPEDFATYYCQQGYVFPLTFGGGTKVEIK",< 0.8,< 0.055,
"AB-28-7 Fab (Fab, V domains shown) VH: QVQLQESGPGLVKPSETLSLTCAVSGYSISSGMGWDWIRQPPGKGREWIGSIDQRGSTYYNPSLEGRATISVDTSKNQFSLKLSSVTAADTAVYYCARDAGHGVDMDVWGKGTTVTVSS VL: DIQMTQSPSSVSASVGDRVTITCRASQGISRWLAWYQQKPGKAPKLLIYAASSLQSGVPSRFSGSGSGTDFTLTISSLQPEDFATYYCQQGYVFPLTFGGGTKVEIK",< 0.8,< 0.055,
"AB-28-8 Fab (Fab, V domains shown) VH: QVQLQESGPGLVKPSETLSLTCAVSGYSISSGMGWDWIRQPPGKGLEWIGSIDQRGSTYYNPPLESRVTISVDTSKNQFSLKLSSVTAADTAVYYCARDAGHGVDMDVWGKGTTVTVSS VL: DIQMTQSPSSVSASVGDRVTITCRASQGISRWLAWYQQKPGKAPKLLIYAASSLQSGVPSRFSGSGSGTDFTLTISSLQPEDFATYYCQQGYVFPLTFGGGTKVEIK",< 0.8,< 0.055,
"AB-28-9 Fab (Fab, V domains shown) VH: EVQLQESGPGLVRPSETLSLTCAVSGYSISSGMGWGWIRQPPGKGLEWIGSIDQRGSTYYNPSLKSRVTISVDTSKNQFSLKLSSVTAADTAVYYCARDAGHAVDMDVWGKGTTVTVSS VL: DIQMTQSPSSVSASVGDRVTITCRASQGISRWLAWYQQKPGKAPKLLIYAASSLQSGVPSRFSGSGSGTDFTLTISSLQPEDFATYYCQQGYVFPLTFGGGTKVEIK",< 0.8,< 0.055,
